Tests used:
[1] = molecular target: T1, Mucin1 on tumor cells (MCF-7, BT-549, HCC70, T-47D, HCC1954, SK-OV-3, Hela, HT-29) (human, UniProt P15941 24-1255); test: cell-based or functional assay
[2] = molecular target: T1, Mucin1 on tumor cells (MCF-7, BT-549, …); test: cell-based or functional assay; remark: listed apart in the source
[3] = molecular target: T1, Mucin1 on tumor cells (MCF-7, BT-549, …); test: flow cytometry on HCC70 cells
[4] = molecular target: T1, Mucin1 on tumor cells (MCF-7, BT-549, …); test: flow cytometry on BT-549 cells
[5] = molecular target: T1, Mucin1 on tumor cells (MCF-7, BT-549, …); test: flow cytometry on SK-OV-3 cells
[6] = molecular target: T1, Mucin1 on tumor cells (MCF-7, BT-549, …); test: flow cytometry on T-47D cells
[7] = molecular target: T1, Mucin1 on tumor cells (MCF-7, BT-549, …); test: flow cytometry on HCC1954 cells
[8] = molecular target: T1, Mucin1 on tumor cells (MCF-7, BT-549, …); test: flow cytometry on Hela cells

B1: Bispecific antibody AB11K (Anti-Mucin1×CD3, scFv1-scFv2-Fc) (bispecific antibody)
chain: EVQLVESGGGLVQPGGSMRLSCVASGFPFSNYWMNWVRQAPGKGLEWVGEIRLKSNNYTTHYAESVKGRFTISRDDSKNSLYLQMNSLKTEDTAVYYCTRHYYFDYWGQGTLVTVSSGGGGSGGGGSGGGGSDIVMTQSPLSNPVTPGEPASISCRSSKSLLHSNGITYFFWYLQKPGQSPQLLIYQMSNLASGVPDRFSGSGSGTDFTLRISRVEAEDVGVYYCAQNLELPPTFGQGTKVEIKGGGGGGSGGGGSGGGGSSSSSKAPPPSEVQLLESGGGLVQPGGSLKLSCAASGFTFNTYAMNWVRQAPGKGLEWVARIRSKYNNYATYYADSVKDRFTISRDDSKNTAYLQMNNLKTEDTAVYYCVRHGNFGNSYVSWFAYWGQGTLVTVSSGGGGSGGGGSGGGGSELVVTQEPSLTVSPGGTVTLTCRSSTGAVTTSNYANWVQQKPGQAPRGLIGGTNKRAPGTPARFSGSLLGGKAALTLSGVQPEDEAEYYCALWYSNLWVFGGGTKLTVLDKTHTCPPCPAPEAAGGPSVFLFPPKPKDQLMISRTPEVTCVVVDVSHEDPEVKFNWYVDGVEVHNAKTKPREEQYASTYRVVSVLTVLHQDWLNGKEYKCKVSNKALPASIEKTISKAKGQPREPQVYTLPPSRDELTKNQVSLTCLVKGFYPSDIAVEWESNGQPENNYKTTPPVLDSDGSFFLYSKLTVDKSRWQQGNVFSCSVLHEALHNHYTQKSLSLSPG
T cell activation EC50 (Jurkat-NFAT luciferase) with BT-549 cells [1]: 10.5 nM | T cell activation EC50 (Jurkat-NFAT luciferase) with HCC70 cells [1]: 3.02 nM | T cell activation EC50 (Jurkat-NFAT luciferase) with HCC1954 cells [1]: 5.6 nM | T cell activation EC50 (Jurkat-NFAT luciferase) with HT-29 cells [1]: 6.71 nM | T cell activation EC50 (Jurkat-NFAT luciferase) with Hela cells [1]: 7.24 nM | T cell activation EC50 (Jurkat-NFAT luciferase) with MCF-7 cells [1]: 14.2 nM | T cell activation EC50 (Jurkat-NFAT luciferase) with SK-OV-3 cells [1]: 10.4 nM | T cell activation EC50 (Jurkat-NFAT luciferase) with T-47D cells [1]: 0.629 nM | PBMC killing EC50, BT-549 cells [2]: 0.956 nM | PBMC killing EC50, HCC70 cells [2]: 0.595 nM | PBMC killing EC50, HCC1954 cells [2]: 1.89 nM | PBMC killing EC50, HT-29 cells [2]: 9.55 nM | PBMC killing EC50, Hela cells [2]: 4.81 nM | PBMC killing EC50, MCF-7 cells [2]: 0.131 nM | T cell killing EC50, BT-549 cells [2]: 0.141 nM | T cell killing EC50, HCC70 cells [2]: 0.185 nM | T cell killing EC50, HCC1954 cells [2]: 0.281 nM | T cell killing EC50, HT-29 cells [2]: 1.58 nM | T cell killing EC50, Hela cells [2]: 0.278 nM | T cell killing EC50, MCF-7 cells [2]: 0.153 nM | T cell killing EC50, SK-OV-3 cells [2]: 0.689 nM | T cell killing EC50, T-47D cells [2]: 0.0845 nM | EC50 [3]: 59 nM | EC50 [4]: 287 nM | EC50 [5]: 93.7 nM | EC50 [6]: 5.05 nM | EC50 [7]: 81.2 nM | EC50 [8]: 5.51 nM

Source: patent US20210371526A1 (AMPSOURCE BIOPHARMA SHANGHAI, published 2021)
